T1: trop-2 protein (UniProt P09758 27-274, limits assumed)
T1 construct: Bought antigen, used as the SPR analyte; The printed catalogue number is doubtful
T1 sequence (looked up): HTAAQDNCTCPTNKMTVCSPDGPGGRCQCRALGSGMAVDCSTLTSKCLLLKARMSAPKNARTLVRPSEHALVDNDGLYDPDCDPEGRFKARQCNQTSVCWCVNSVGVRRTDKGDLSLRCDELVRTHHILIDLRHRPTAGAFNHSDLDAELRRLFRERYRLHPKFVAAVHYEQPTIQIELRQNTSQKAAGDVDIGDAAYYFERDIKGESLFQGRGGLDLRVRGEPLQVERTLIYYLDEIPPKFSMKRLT


Legend:
trop-2 protein = target: T1, trop-2 protein; test: SPR (Biacore T100, 25 C); binder captured on anti-human IgG CM5 chip, trop-2 protein as analyte
GPC-3 protein = target: T2, GPC-3 protein (UniProt P51654 25-559, limits assumed); test: SPR (Biacore T100, 25 C); binder captured on anti-human IgG CM5 chip, GPC-3 protein as analyte
T2 construct: Bought antigen, used as the SPR analyte; also called Glypican-3
T2 sequence (P51654 25-559 limits assumed): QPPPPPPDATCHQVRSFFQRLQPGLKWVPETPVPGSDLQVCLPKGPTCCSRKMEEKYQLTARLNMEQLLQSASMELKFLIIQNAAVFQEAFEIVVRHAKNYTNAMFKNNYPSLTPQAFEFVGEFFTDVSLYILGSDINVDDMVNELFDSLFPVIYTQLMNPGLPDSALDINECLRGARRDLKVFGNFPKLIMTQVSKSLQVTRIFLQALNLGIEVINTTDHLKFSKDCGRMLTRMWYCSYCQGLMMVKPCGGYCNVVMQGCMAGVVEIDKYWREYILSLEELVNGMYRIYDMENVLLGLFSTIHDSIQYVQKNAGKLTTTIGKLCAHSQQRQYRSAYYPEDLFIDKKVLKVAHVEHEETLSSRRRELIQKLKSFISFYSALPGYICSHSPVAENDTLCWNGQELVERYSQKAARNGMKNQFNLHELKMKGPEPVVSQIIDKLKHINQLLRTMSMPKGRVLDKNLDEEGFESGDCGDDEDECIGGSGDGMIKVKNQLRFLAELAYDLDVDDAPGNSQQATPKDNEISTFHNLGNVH

| Kd (trop-2 protein) [nM] | koff (trop-2 protein) [s⁻¹] | kon (trop-2 protein) [M⁻¹ s⁻¹] | Kd (GPC-3 protein) [nM] | koff (GPC-3 protein) [s⁻¹] | kon (GPC-3 protein) [M⁻¹ s⁻¹] | Binder |
| --- | --- | --- | --- | --- | --- | --- |
| 0.857 | 4.82e-05 | 56300 |  |  |  | anti-trop-2 antibody BY43 (sacituzumab) (antibody, human IgG1, kappa, V domains shown, Made in-house from INN 10418; also called control antibody BY43) VH: QVQLQQSGSELKKPGASVKVSCKASGYTFTNYGMNWVKQAPGQGLKWMGWINTYTGEPTYTDDFKGRFAFSLDTSVSTAYLQISSLKADDTAVYFCARGGFGSSYWYFDVWGQGSLVTVSS VL: DIQLTQSPSSLSASVGDRVSITCKASQDVSIAVAWYQQKPGKAPKLLIYSASYRYTGVPDRFSGSGSGTDFTLTISSLQPEDFAVYYCQQHYITPLTFGAGTKVEIKR |
|  |  |  | 2.08 | 7.57e-05 | 36400 | anti-GPC-3 antibody BY20.2 (codrituzumab) (antibody, human IgG1, kappa, V domains shown, Made in-house from INN 9759; If the listing has 19, the mature range is 20-238; also called control antibody BY20.2) VH: QVQLVQSGAEVKKPGASVKVSCKASGYTFTDYEMHWVRQAPGQGLEWMGALDPKTGDTAYSQKFKGRVTLTADKSTSTAYMELSSLTSEDTAVYYCTRFYSYTYWGQGTLVTVSS VL: DVVMTQSPLSLPVTPGEPASISCRSSQSLVHSNRNTYLHWYLQKPGQSPQLLIYKVSNRFSGVPDRFSGSGSGTDFTLKISRVEAEDVGVYYCSQNTHVPPTFGQGTKLEIKR |

Source: US20230235011A1 (BEIJING BEYOND BIOTECHNOLOGY, published 2023)
